The assay has as its target hepatitis B virus surface antigen (HBsAg) (Hepatitis B virus). Briefly: competitive ELISA: plate-coated HBsAg, soluble HBsAg as competitor, purified IgG.

The values below come from US20120264921A1.

B1: human antibody HB48-59 (antibody, V domains shown)
VH: QVQLVQSGGEVKKPGALMKVSCKASGYIFTSYGISWVRQAPGQGLEWIGWINTYSGHTNYARKFRGRVTMTWDTSTSTAYMELSSLRSDDTAVYYCARVPTWGIDYWGQGTLVTVSS
VL: DIVMTQTPLSLPVTPGEPASISCRSSQSLLHSNGYNYLDWYLQKPGQSPQLLIYLGSKRASGVPDRFSGSGSGTDFTLQISRVEAEDVGVYYCMQSTQFPPYTFGQGTKLEIKR
B1 registered a fold lower affinity than HB48-35 of 1.3 fold.

B2: human antibody HB48-33 (antibody, V domains shown)
VH: B1 VH
VL: QAGLTQPPSVSVAPGKTARITCGGDNIGRKSVHWYQQKTGQAPVLVVYEDNKRPSGIPERFSGSNSGNTATLTISGTQAMDEADYYCQAWDSSTVVFGGGTKLTVLG
The molecule B2 registered a fold lower affinity than HB48-35 of 4 fold.
